Data on ten molecules can be found in US20260241049A1, “Radiopharmaceutical Compositions Targeting Glypican-3 and Uses Thereof” (RayzeBio, Inc., priority 2023, published 2026).

Starred links: 1 amine or outer side, 2 acyl side, 3 side chain; linkers in the order of their positions; H or OH if unused. Positions of bridges follow the written chain, without caps; N, C: chain ends. Non-standard residues stand in square brackets, D forms with d. Primed or numbered codes have the meaning given here. *: point of attachment. DOTA‑Lu = DOTA-lutetium(175) amide on the side-chain amine, O=C([O-])CN1CCN(CC(=O)[O-])CCN(CC(=O)*)CCN(CC(=O)[O-])CC1.[175Lu+3]; MeHseMe″ = (2S)-4-methoxy-2-(methylamino)butanoic acid (N-methyl-O-methyl-L-homoserine), COCC[C@@H](C(=O)[*:2])N(C)[*:1]; Hgn = 2,6-diamino-6-oxohexanoic acid, NC(=O)CCC[C@H](N[*:1])C(=O)[*:2]; HseMe = 2-amino-4-methoxybutanoic acid, COCC[C@H](N[*:1])C(=O)[*:2]; Phe(4-(1-Me-pyrazol-4-yl)) = Cn1cc(-c2ccc(C[C@H](N)C(=O)O)cc2)cn1; NMeAla(isoquinolin-7-yl) = CN[C@@H](Cc1ccc2ccncc2c1)C(=O)O; 3Pal(6-Ph) = N[C@@H](Cc1ccc(-c2ccccc2)nc1)C(=O)O; Phe(4-COOH) = N[C@@H](Cc1ccc(C(=O)O)cc1)C(=O)O; NMe2Nal = CN[C@@H](Cc1ccc2ccccc2c1)C(=O)O; NMeI = CC[C@H](C)[C@H](NC)C(=O)O; NMeQ = CN[C@@H](CCC(N)=O)C(=O)O; NMeL = CN[C@@H](CC(C)C)C(=O)O; NMeK = CN[C@@H](CCCCN)C(=O)O; NMeC = CN[C@@H](CS)C(=O)O; NMeA = CN[C@@H](C)C(=O)O

The chains are these.
B1: Macrocyclic peptide of Example 2-2 (SEQ ID No. 3) (peptide)
peptide: {CH2CO}-[NMeK](Ac)[NMeI]D[NMeQ][Phe(4-COOH)]II[Phe(4-COOH)][NMe2Nal]G[Phe(4-(1-Me-pyrazol-4-yl))][NMeC]-NH2
modifications: thioether N-12
SMILES: CC[C@H](C)[C@@H]1NC(=O)[C@H](Cc2ccc(C(=O)O)cc2)NC(=O)[C@H](CCC(N)=O)N(C)C(=O)[C@H](CC(=O)O)NC(=O)[C@H]([C@@H](C)CC)N(C)C(=O)[C@H](CCCCNC(C)=O)N(C)C(=O)CSC[C@@H](C(N)=O)N(C)C(=O)[C@H](Cc2ccc(-c3cnn(C)c3)cc2)NC(=O)CNC(=O)[C@H](Cc2ccc3ccccc3c2)N(C)C(=O)[C@H](Cc2ccc(C(=O)O)cc2)NC(=O)[C@H]([C@@H](C)CC)NC1=O
B2: Macrocyclic peptide of Example 2-5 (SEQ ID No. 8) (peptide)
peptide: {CH2CO}-[NMeQ][NMeQ]D[NMeQ][Phe(4-COOH)]II[Phe(4-COOH)][NMe2Nal]G[Phe(4-(1-Me-pyrazol-4-yl))][NMeC]-NH2
modifications: thioether N-12
SMILES: CC[C@H](C)[C@@H]1NC(=O)[C@H](Cc2ccc(C(=O)O)cc2)NC(=O)[C@H](CCC(N)=O)N(C)C(=O)[C@H](CC(=O)O)NC(=O)[C@H](CCC(N)=O)N(C)C(=O)[C@H](CCC(N)=O)N(C)C(=O)CSC[C@@H](C(N)=O)N(C)C(=O)[C@H](Cc2ccc(-c3cnn(C)c3)cc2)NC(=O)CNC(=O)[C@H](Cc2ccc3ccccc3c2)N(C)C(=O)[C@H](Cc2ccc(C(=O)O)cc2)NC(=O)[C@H]([C@@H](C)CC)NC1=O
B3: Macrocyclic peptide of Example 2-6 (SEQ ID No. 9) (peptide)
peptide: {CH2CO}-[NMeA][NMeQ]D[NMeQ][Phe(4-COOH)]II[Phe(4-COOH)][NMe2Nal]G[Phe(4-(1-Me-pyrazol-4-yl))][NMeC]-NH2
modifications: thioether N-12
SMILES: CC[C@H](C)[C@@H]1NC(=O)[C@H](Cc2ccc(C(=O)O)cc2)NC(=O)[C@H](CCC(N)=O)N(C)C(=O)[C@H](CC(=O)O)NC(=O)[C@H](CCC(N)=O)N(C)C(=O)[C@H](C)N(C)C(=O)CSC[C@@H](C(N)=O)N(C)C(=O)[C@H](Cc2ccc(-c3cnn(C)c3)cc2)NC(=O)CNC(=O)[C@H](Cc2ccc3ccccc3c2)N(C)C(=O)[C@H](Cc2ccc(C(=O)O)cc2)NC(=O)[C@H]([C@@H](C)CC)NC1=O
B4: Macrocyclic peptide of Example 2-7 (SEQ ID No. 10) (peptide)
peptide: {CH2CO}-[NMeQ][NMeL]D[NMeQ][Phe(4-COOH)]II[Phe(4-COOH)][NMe2Nal]G[Phe(4-(1-Me-pyrazol-4-yl))][NMeC]-NH2
modifications: thioether N-12
SMILES: CC[C@H](C)[C@@H]1NC(=O)[C@H](Cc2ccc(C(=O)O)cc2)NC(=O)[C@H](CCC(N)=O)N(C)C(=O)[C@H](CC(=O)O)NC(=O)[C@H](CC(C)C)N(C)C(=O)[C@H](CCC(N)=O)N(C)C(=O)CSC[C@@H](C(N)=O)N(C)C(=O)[C@H](Cc2ccc(-c3cnn(C)c3)cc2)NC(=O)CNC(=O)[C@H](Cc2ccc3ccccc3c2)N(C)C(=O)[C@H](Cc2ccc(C(=O)O)cc2)NC(=O)[C@H]([C@@H](C)CC)NC1=O
B5: Macrocyclic peptide of Example 2-10 (SEQ ID No. 13) (peptide)
peptide: {CH2CO}-[NMeQ][NMeQ][Hgn][NMeQ][Phe(4-COOH)]II[Phe(4-COOH)][NMe2Nal]G[Phe(4-(1-Me-pyrazol-4-yl))][NMeC]-NH2
modifications: thioether N-12
SMILES: CC[C@H](C)[C@@H]1NC(=O)[C@H](Cc2ccc(C(=O)O)cc2)NC(=O)[C@H](CCC(N)=O)N(C)C(=O)[C@H](CCCC(N)=O)NC(=O)[C@H](CCC(N)=O)N(C)C(=O)[C@H](CCC(N)=O)N(C)C(=O)CSC[C@@H](C(N)=O)N(C)C(=O)[C@H](Cc2ccc(-c3cnn(C)c3)cc2)NC(=O)CNC(=O)[C@H](Cc2ccc3ccccc3c2)N(C)C(=O)[C@H](Cc2ccc(C(=O)O)cc2)NC(=O)[C@H]([C@@H](C)CC)NC1=O
B6: Macrocyclic peptide of Example 2-8 (SEQ ID No. 11) (peptide)
peptide: {CH2CO}-[NMeQ][MeHseMe″]D[NMeQ][Phe(4-COOH)]II[Phe(4-COOH)][NMe2Nal]G[Phe(4-(1-Me-pyrazol-4-yl))][NMeC]-NH2
modifications: thioether N-12
SMILES: CC[C@H](C)[C@@H]1NC(=O)[C@H](Cc2ccc(C(=O)O)cc2)NC(=O)[C@H](CCC(N)=O)N(C)C(=O)[C@H](CC(=O)O)NC(=O)[C@H](CCOC)N(C)C(=O)[C@H](CCC(N)=O)N(C)C(=O)CSC[C@@H](C(N)=O)N(C)C(=O)[C@H](Cc2ccc(-c3cnn(C)c3)cc2)NC(=O)CNC(=O)[C@H](Cc2ccc3ccccc3c2)N(C)C(=O)[C@H](Cc2ccc(C(=O)O)cc2)NC(=O)[C@H]([C@@H](C)CC)NC1=O
B7: Macrocyclic peptide of Example 2-11 (SEQ ID No. 14) (peptide)
peptide: {CH2CO}-[NMeQ][NMeQ]K(Ac)[NMeQ][Phe(4-COOH)]II[Phe(4-COOH)][NMe2Nal]G[Phe(4-(1-Me-pyrazol-4-yl))][NMeC]-NH2
modifications: thioether N-12
SMILES: CC[C@H](C)[C@@H]1NC(=O)[C@H](Cc2ccc(C(=O)O)cc2)NC(=O)[C@H](CCC(N)=O)N(C)C(=O)[C@H](CCCCNC(C)=O)NC(=O)[C@H](CCC(N)=O)N(C)C(=O)[C@H](CCC(N)=O)N(C)C(=O)CSC[C@@H](C(N)=O)N(C)C(=O)[C@H](Cc2ccc(-c3cnn(C)c3)cc2)NC(=O)CNC(=O)[C@H](Cc2ccc3ccccc3c2)N(C)C(=O)[C@H](Cc2ccc(C(=O)O)cc2)NC(=O)[C@H]([C@@H](C)CC)NC1=O
B8: Macrocyclic peptide of Example 2-9 (SEQ ID No. 12) (peptide)
peptide: {CH2CO}-[NMeQ][HseMe]D[NMeQ][Phe(4-COOH)]II[Phe(4-COOH)][NMe2Nal]G[Phe(4-(1-Me-pyrazol-4-yl))][NMeC]-NH2
modifications: thioether N-12
SMILES: CC[C@H](C)[C@@H]1NC(=O)[C@H](Cc2ccc(C(=O)O)cc2)NC(=O)[C@H](CCC(N)=O)N(C)C(=O)[C@H](CC(=O)O)NC(=O)[C@H](CCOC)NC(=O)[C@H](CCC(N)=O)N(C)C(=O)CSC[C@@H](C(N)=O)N(C)C(=O)[C@H](Cc2ccc(-c3cnn(C)c3)cc2)NC(=O)CNC(=O)[C@H](Cc2ccc3ccccc3c2)N(C)C(=O)[C@H](Cc2ccc(C(=O)O)cc2)NC(=O)[C@H]([C@@H](C)CC)NC1=O
B9: Lu-C-1 (peptide)
peptide: Ac-[NMeK](DOTA‑Lu)[NMeI]D[NMeQ][Phe(4-COOH)]IIY[NMeAla(isoquinolin-7-yl)]G[3Pal(6-Ph)][NMeC]-NH2
modifications: bridge N-12; not fully specified (bridges); printed as MeK(DOTA-Lu)-MeI-D-MeQ-F4COO-I-I-Y-MeNal27N-G-3Py6Ph-MeC-NH2
B10: Macrocyclic peptide of Example 2-1 (SEQ ID No. 2) (peptide)
peptide: {CH2CO}-[NMeK](Ac)[NMeI]D[NMeQ][Phe(4-COOH)]II[Phe(4-COOH)][NMe2Nal]G[3Pal(6-Ph)][NMeC]-NH2
modifications: thioether N-12
SMILES: CC[C@H](C)[C@@H]1NC(=O)[C@H](Cc2ccc(C(=O)O)cc2)NC(=O)[C@H](CCC(N)=O)N(C)C(=O)[C@H](CC(=O)O)NC(=O)[C@H]([C@@H](C)CC)N(C)C(=O)[C@H](CCCCNC(C)=O)N(C)C(=O)CSC[C@@H](C(N)=O)N(C)C(=O)[C@H](Cc2ccc(-c3ccccc3)nc2)NC(=O)CNC(=O)[C@H](Cc2ccc3ccccc3c2)N(C)C(=O)[C@H](Cc2ccc(C(=O)O)cc2)NC(=O)[C@H]([C@@H](C)CC)NC1=O

The target of this assay is T1, human Glypican3 (R&D systems, catalog number: 2119-GP) (human, UniProt P51654 25-559, limits assumed).
T1 construct: Bought recombinant protein, amine-coupled to the chip in Method B-1; also called GPC3; hGPC3
Description: SPR (Biacore T200), Method B-1: human Glypican3 amine-coupled to CM3 chip, peptide as analyte. The protocol:
A CM3 sensor chip (Cytiva) was inserted into a Biacore T200 (Cytiva), primed three times with a running buffer: HBS-P+, pH 7.4 (Cytiva), and equilibrated at a flow rate of 30 μL/min. Ligand immobilization was performed at a flow rate of 10 μL/min. 50 μL each of 60 mM EDC solution (Cytiva) and 650 mM NHS solution (Cytiva) were mixed, and then reacted at a flow rate of 10 μL/min for 420 seconds, 150 μL of 0.2 μM human Glypican3 (R&D systems, catalog number: 2119-GP) solution which was prepared by diluting with 10 mM acetic acid solution (pH 5.0), was reacted at a flow rate of 10 μL/min for 420 seconds, and Glypican3 was immobilized on the CM3 sensor chip. After immobilization, 1.0 M ethanolamine aqueous solution (Cytiva) was allowed to react for 420 seconds at a flow rate of 10 μL/min for capping. A peptide lysate prepared to 10 mM in DMSO solution was diluted with running buffer to a final concentration of 10 μM peptide lysate. […] Using the above samples, peptide kinetics for Glypican3 was obtained by SPR measurement. Kinetics evaluation of Glypican3 was performed by SPR measurements at a flow rate of 10 μL/min, setting the association time to 120 seconds and the disassociation time to 600 seconds.
The obtained data by Method B-1, Method B-2, Method B-3 and Method B-4 were analyzed by follow. Single Cycle Kinetics was used as the kinetics evaluation model, and curve fitting was performed using Biacore T200 Evaluation Software Version 3.0 (Cytiva).
Consider B1, for which binding was characterised by a dissociation constant (Kd) of 1.5 nM.

In the case of B2, the Kd was 2.6 nM.

Consider B3, for which binding was put at a Kd of 2.7 nM.

Molecule B4 displayed a Kd of 6.8 nM.

B5 registered a dissociation constant Kd of 2.2 nM.

Take B6: the Kd was found to be 1.3 nM.

With B7, the affinity, expressed as Kd, was 2.5 nM.

Molecule B8 gave a Kd of 7.2 nM.

The molecule B9 displayed a Kd of 0.29 nM.

As to B10, binding was characterised by a dissociation constant (Kd) of 0.5 nM.
